Changes are numbered by the printed parent chain. One block for each binder: values may come before it.
Assays:
[1] = molecular target: T1, 犬CD20 (canine CD20, B淋巴细胞抗原CD20, full length, wild type) (canine (dog), UniProt Q3C2E2 1-297); assay: flow cytometry on MDCK cells expressing wild-type canine CD20 (positive control of epitope mapping)
T1 construct: Stably expressed from full-length cDNA on MDCK II (or HEK293) cells for flow cytometry and ADCC; naturally expressed on CLBL-1 canine lymphoma cells in the CDC assay; also called cCD20; MS4A1
T1 chain: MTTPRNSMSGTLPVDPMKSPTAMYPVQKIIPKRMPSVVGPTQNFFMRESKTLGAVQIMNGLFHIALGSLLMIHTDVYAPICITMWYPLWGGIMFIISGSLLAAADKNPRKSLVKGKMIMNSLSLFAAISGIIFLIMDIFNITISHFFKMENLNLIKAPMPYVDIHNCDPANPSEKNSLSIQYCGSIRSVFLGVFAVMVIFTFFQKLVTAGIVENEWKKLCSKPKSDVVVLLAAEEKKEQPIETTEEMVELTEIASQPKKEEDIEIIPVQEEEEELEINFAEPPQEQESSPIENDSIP

[2] = molecular target: T1, 犬CD20 (canine CD20, B淋巴细胞抗原CD20, full …); assay: flow cytometry, 10 ug/ml antibody on MDCK II cells expressing canine CD20 (Fig 3A); equal to 4E1-7
[3] = molecular target: T1, 犬CD20 (canine CD20, B淋巴细胞抗原CD20, full …); assay: flow cytometry on cells expressing canine CD20, against PMX003 (Fig 3B); unchanged
[4] = molecular target: T1, 犬CD20 (canine CD20, B淋巴细胞抗原CD20, full …); assay: flow cytometry on cells expressing canine CD20, against PMX003 (Fig 3B); slight decrease

binding result [1]: binds
B1: PMX003 (antibody, V domains shown)
VH: EVQLVESGGDLVKPGGSLRLSCVASGITFSRYHMSWVRQAPGKGLQWVAYINSGGSSTSYPDAVKGRFTISRDNAKNTLYLQMDSLRAEDTALYYCTTFDYWGQGTLVTVSS
VL: SYVLTQLPSKNVTLKQPAHITCGGDNIGSKSVHWYQQKLGQAPVLIIYYDSRRPTGIPERFSGANSGNTATLTISGALAEDEADYYCQVWDSSANVFGGGTHLTVL
notes: Fully canine mAb; Tested in native form and in an a-fucosylated form (made in Fut8 knockout CHO cells) in CDC/ADCC; also called PMX003 mAb

binding result [2]: binds
B2: PMX002 (antibody, V domains shown)
VH: EVQLVESGGDLVKPGGSLRLSCVASGIIFSNYHMSWVRQVPGKGLQWVAYINSGGSTINYADGVKGRFTISRDNAKNSLYLQMNSLRGEDTAVYYCTTYDSWGQGTLVTVSS
VL: B1 VL with R52S, A94V
notes: Fully canine mAb; also called PMX002 mAb

binding result [3]: binds
B3: PMX008 (antibody, V domains shown)
VH: B1 VH
VL: B1 VL with N11E
notes: PMX003 heavy chain; Constant regions not restated (PMX003: dog IGGB / dog IGLC5); also called PMX008 mAb; EVT

binding result [3]: binds
B4: PMX009 (antibody, V domains shown)
VH: B1 VH
VL: B1 VL with T13A
notes: PMX003 heavy chain; Constant regions not restated (PMX003: dog IGGB / dog IGLC5); also called PMX009 mAb; NVA

binding result [1]: binds
B5: PMX115 (antibody, V domains shown)
VH: EMQLVESGGALVKPGGSLRLSCVASGFTFRRYHMSWVRQAPGQGLQWVAYIDSDGSPTSYGDSVKGRFTISRDNAKNTLFLQMNSLRVDDTAVYYCTTLDYWGRGTLVTVSS
VL: B1 VL with L7V, N11S, S29G, V44L, S51T, G76R, A94G, L106I
notes: also called PMX115 mAb

binding result [4]: binds
B6: PMX006 (antibody, V domains shown)
VH: B1 VH
VL: B1 VL with N11Q
notes: PMX003 heavy chain; Constant regions not restated (PMX003: dog IGGB / dog IGLC5); also called PMX006 mAb; QVT突变体

binding result [4]: binds
B7: PMX007 (antibody, V domains shown)
VH: B1 VH
VL: B1 VL with N11A
notes: PMX003 heavy chain; Constant regions not restated (PMX003: dog IGGB / dog IGLC5); also called PMX007 mAb; AVT突变体

Reference: patent CN117677637A (PETEMEDI LTD, dated 2024)
